Experimental findings from patent US6417168 are described below.

The target in assay [1] is human epidermal growth factor receptor (EGFR), full-length wild type (human) (UniProt P00533). Briefly: cell-based or functional assay.
Assay [2] concerns the target ΔEGFR, extracellular-deleted mutant human EGFR (EGFRvIII) (human) (UniProt P00533). Nature of the assay: cell-based or functional assay.

In turn, “N691stop (truncated rat cellular p185, stop codon for Thr^691) (from UniProt P06494 23-690) (receptor)” returned an EGF-induced down-regulation of cell surface EGFR (flow cytometry), maximum reduction in assay [1] of 20 to 25%.

Substance “N757 (Nneu K757M, ATP-binding mutant of rat cellular p185) (from UniProt P06494 23-1257) (receptor)” displayed an EGF-induced down-regulation of cell surface EGFR (flow cytometry), maximum reduction in assay [1] of 20 to 25%.

With “T691stop neu (truncated rat oncogenic p185neu, stop codon at amino acid 691, val→glu at amino acid 664) (from UniProt P06494 23-687) (receptor)”, in assay [2], the phosphorylation content of immunoprecipitated p155ΔEGFR monomers (scanning densitometry, PY-20 blot) turned out to be 33.7%; the soft agar growth of U87MG.ΔEGFR/T691s cells, reduction compared to U87MG.ΔEGFR cells worked out at 45%; the soft agar growth of U87MG.ΔEGFR/T691s cells, reduction compared to parental U87MG cells was 41.3%. Further, in assay [1], the apoptosis of U87/T691 cells, serum deprivation combined with radiation (DAPI) came out at 33% and the inhibition of anchorage-independent growth in U87MG parental cells lacking ΔEGFR amounted to 75.2%.

In the case of “wildtype cellular rat p185 (Nneu) (from UniProt P06494 23-1257) (receptor)”, in assay [1], the co-downregulation of cellular p185 with EGFR upon EGF treatment (flow cytometry, M1 cells) amounted to 20%.
